Patent US20210032352A1 (ANTERA THERAPEUTICS, published 2021)
Where a chain is given by its changes, count along the chain named. Blank lines part the entries; values can stand above or below the binder they belong to.

What was measured:
[1] = molecular target: T1, mouse LRP5 ECD, Fc-tagged (mouse, UniProt Q91VN0 31-1383); test: ELISA of the IgG on hLRP6, mLRP6, mLRP5, Fc and BSA
T1 construct: extracellular domain; Bought; not shown: Fc tag of the purchased fusion
T1 sequence (looked up): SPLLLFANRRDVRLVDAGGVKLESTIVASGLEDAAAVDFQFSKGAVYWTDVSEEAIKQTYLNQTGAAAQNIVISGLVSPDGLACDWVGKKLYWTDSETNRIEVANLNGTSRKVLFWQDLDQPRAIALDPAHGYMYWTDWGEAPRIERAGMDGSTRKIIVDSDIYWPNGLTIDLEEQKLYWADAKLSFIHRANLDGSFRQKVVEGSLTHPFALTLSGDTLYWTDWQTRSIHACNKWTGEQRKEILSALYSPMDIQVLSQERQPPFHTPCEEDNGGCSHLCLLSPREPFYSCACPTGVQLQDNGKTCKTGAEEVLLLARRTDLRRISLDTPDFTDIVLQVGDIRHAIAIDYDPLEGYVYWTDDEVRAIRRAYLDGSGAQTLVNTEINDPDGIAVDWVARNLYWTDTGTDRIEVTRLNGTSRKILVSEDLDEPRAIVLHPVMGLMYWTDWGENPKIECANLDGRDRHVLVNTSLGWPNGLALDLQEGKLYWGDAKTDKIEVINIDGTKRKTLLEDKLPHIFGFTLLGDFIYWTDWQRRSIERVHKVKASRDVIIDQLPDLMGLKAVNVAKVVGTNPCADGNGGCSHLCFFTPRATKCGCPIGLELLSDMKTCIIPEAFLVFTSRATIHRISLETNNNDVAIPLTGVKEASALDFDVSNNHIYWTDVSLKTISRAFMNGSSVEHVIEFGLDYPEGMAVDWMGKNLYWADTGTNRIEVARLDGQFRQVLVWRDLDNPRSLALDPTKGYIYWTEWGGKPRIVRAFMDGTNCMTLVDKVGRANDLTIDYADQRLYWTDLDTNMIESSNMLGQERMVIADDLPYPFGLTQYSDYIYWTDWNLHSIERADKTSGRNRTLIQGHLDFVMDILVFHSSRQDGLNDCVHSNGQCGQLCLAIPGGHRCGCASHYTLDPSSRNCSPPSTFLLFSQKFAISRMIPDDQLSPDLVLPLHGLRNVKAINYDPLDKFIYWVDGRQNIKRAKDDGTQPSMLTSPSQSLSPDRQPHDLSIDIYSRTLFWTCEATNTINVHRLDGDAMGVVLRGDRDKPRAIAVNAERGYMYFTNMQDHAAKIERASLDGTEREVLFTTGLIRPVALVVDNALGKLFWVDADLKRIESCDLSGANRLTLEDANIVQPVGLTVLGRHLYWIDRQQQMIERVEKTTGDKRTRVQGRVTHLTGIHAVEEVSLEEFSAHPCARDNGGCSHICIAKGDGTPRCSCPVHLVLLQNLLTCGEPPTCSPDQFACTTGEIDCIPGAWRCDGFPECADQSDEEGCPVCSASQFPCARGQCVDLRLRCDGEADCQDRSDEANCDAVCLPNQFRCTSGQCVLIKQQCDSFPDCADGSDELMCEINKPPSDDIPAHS

[2] = molecular target: T2, mouse LRP6 ECD, Fc-tagged (mouse, UniProt O88572 20-1370); test: as above
T2 construct: extracellular domain; Bought; not shown: Fc tag of the purchased fusion
T2 sequence (looked up): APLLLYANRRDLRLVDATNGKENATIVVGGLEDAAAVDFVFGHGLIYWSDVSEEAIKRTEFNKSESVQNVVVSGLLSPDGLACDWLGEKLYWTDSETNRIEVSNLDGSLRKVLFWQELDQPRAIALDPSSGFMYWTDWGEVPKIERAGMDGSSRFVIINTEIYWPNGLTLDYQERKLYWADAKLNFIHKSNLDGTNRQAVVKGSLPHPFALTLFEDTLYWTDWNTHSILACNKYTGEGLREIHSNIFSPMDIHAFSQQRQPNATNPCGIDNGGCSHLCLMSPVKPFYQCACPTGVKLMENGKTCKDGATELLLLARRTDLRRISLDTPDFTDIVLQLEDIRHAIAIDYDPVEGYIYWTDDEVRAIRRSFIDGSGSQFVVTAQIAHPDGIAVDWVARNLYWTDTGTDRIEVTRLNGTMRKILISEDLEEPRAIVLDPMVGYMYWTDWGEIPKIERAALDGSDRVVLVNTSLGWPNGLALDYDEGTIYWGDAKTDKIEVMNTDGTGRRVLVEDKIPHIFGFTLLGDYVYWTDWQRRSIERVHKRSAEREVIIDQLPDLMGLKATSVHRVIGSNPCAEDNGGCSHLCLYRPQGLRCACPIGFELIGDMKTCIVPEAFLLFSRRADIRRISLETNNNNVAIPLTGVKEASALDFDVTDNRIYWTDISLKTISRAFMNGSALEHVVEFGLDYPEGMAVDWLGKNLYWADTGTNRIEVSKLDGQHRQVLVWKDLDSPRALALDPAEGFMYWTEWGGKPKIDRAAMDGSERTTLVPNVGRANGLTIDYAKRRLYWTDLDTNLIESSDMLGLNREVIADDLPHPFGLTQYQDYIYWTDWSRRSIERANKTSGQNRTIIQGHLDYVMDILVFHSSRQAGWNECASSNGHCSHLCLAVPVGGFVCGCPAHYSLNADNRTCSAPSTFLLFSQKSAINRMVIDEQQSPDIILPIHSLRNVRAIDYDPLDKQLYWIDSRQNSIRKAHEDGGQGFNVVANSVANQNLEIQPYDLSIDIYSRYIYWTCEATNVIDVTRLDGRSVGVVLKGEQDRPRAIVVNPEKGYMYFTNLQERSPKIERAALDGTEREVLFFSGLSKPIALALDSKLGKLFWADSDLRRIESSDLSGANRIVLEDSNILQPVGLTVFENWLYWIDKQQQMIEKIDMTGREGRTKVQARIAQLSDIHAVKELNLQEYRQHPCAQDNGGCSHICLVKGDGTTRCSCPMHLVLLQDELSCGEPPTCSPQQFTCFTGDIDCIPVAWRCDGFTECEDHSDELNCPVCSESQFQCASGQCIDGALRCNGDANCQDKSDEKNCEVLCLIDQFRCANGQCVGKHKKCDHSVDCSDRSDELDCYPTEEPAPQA

[3] = molecular target: T3, 85BSA (Bos taurus, UniProt P02769); test: as above
T3 construct: also called bovine serum albumin

[4] = molecular target: T4, FZD2 CRD, Fc-tagged (human, UniProt Q14332 24-190); test: kinetic table of the Fab; KD marked '**…'; the printed KD is not kd/ka of the same column; method not named for this figure
T4 construct: domain: CRD; Bought; not shown: Fc tag of the purchased fusion

[5] = molecular target: T5, FZD1 CRD, Fc-tagged (human, UniProt Q9UP38 70-250); test: as above
T5 construct: domain: CRD; Bought; not shown: Fc tag of the purchased fusion

[6] = molecular target: T6, FZD8 CRD, Fc-tagged (human, UniProt Q9H461 28-158); test: as above
T6 construct: domain: CRD; Bought; not shown: Fc tag of the purchased fusion
T6 sequence (looked up): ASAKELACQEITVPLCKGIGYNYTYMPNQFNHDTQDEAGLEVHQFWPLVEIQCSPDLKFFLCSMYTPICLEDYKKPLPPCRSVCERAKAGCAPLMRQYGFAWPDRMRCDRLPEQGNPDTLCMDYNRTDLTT

[7] = molecular target: T7, FZD5 CRD, Fc-tagged (human, UniProt Q13467 27-167); test: as above
T7 construct: domain: CRD; Bought; also called FZD5 ECD; not shown: Fc tag of the purchased fusion
T7 sequence (looked up): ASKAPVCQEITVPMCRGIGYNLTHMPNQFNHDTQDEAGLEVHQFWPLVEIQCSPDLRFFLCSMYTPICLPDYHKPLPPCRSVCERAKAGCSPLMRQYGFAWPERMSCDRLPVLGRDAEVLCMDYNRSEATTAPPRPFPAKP

[8] = molecular target: FZD7 CRD, Fc-tagged (human, UniProt O75084 33-185); test: as above

T3 sequence (P02769 25-607 limits assumed): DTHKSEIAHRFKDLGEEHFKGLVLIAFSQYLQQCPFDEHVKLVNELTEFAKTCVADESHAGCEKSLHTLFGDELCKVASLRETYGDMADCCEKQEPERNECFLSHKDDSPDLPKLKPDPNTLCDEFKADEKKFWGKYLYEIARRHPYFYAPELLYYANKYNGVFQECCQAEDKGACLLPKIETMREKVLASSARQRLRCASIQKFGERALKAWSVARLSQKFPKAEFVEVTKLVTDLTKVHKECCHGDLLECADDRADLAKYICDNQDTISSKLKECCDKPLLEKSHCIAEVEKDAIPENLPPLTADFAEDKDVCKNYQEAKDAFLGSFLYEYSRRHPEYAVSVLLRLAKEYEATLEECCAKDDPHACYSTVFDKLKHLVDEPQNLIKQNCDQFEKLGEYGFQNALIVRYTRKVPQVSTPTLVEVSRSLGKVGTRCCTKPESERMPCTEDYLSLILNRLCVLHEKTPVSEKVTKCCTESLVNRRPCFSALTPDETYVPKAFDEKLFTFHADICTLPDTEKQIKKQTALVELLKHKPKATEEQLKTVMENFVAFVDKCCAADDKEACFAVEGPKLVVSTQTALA
T5 sequence (Q9UP38 70-250): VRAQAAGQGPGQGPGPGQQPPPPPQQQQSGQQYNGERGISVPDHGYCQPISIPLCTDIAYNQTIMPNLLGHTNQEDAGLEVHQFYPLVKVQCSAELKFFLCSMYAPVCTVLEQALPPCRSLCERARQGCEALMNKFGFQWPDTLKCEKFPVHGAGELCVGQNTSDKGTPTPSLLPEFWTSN

binding result [1]: no binding | binding result [2]: binds | binding result [3]: no binding
B1: LRP6 antibody 2539 (antibody, V domains shown)
VH: EVQLVESGGGLVQPGGSLRLSCAASGFNISYSSIHWVRQAPGKGLEWVAYISSYYGYTYYADSVKGRFTISADTSKNTAYLQMNSLRAEDTAVYYCARAHYFPWAGAMDYWGQGTLVTVSS
VL: DIQMTQSPSSLSASVGDRVTITCRASQSVSSAVAWYQQKPGKAPKLLIYSASSLYSGVPSRFSGSRSGTDFTLTISSLQPEDFATYYCQQYSWGPFTFGQGTKVEIK
notes: also called L6^3

binding result [1]: no binding | binding result [2]: binds | binding result [3]: no binding
B2: LRP6 antibody 2542 (antibody, V domains shown)
VH: EVQLVESGGGLVQPGGSLRLSCAASGFNISSYYIHWVRQAPGKGLEWVASIYSSYGYTSYADSVKGRFTISADTSKNTAYLQMNSLRAEDTAVYYCARTVRGSKKPYFSGWAMDYWGQGTLVTVSS
VL: DIQMTQSPSSLSASVGDRVTITCRASQSVSSAVAWYQQKPGKAPKLLIYSASSLYSGVPSRFSGSRSGTDFTLTISSLQPEDFATYYCQQYYWPITFGQGTKVEIK

Kd [4]: 0.126 nM | Kd [5]: 0.177 nM | Kd [6]: 0.109 nM | Kd [7]: 0.11 nM | Kd [8]: 0.142 nM
B3: F^P - Fab (Fab, V domains shown)
VH: EVQLVESGGGLVQPGGSLRLSCAASGFNIGSSSIHWVRQAPGKGLEWVASIYSAFASTSYADSVKGRFTISADTSKNTAYLQMNSLRAEDTAVYYCARYHFPFGFALDYWGQGTLVTVSS
VL: B2 VL with Y91G, Y92V, W93Y, P94L, I95F
